± gives the uncertainty stated by the source.
Experiment: self-splicing fitness, log relative to wild type (ln ratio); higher = more splicing; Tetrahymena group I intron in knt gene, E. coli kanamycin selection, DiMSum; sequences stand for … in CUCUCU…GGAGGGAAAAGUUAUCAGGCAUGCACCUGGUAGCUAGUCUUUAAACCAAUAGAUUGCAUCGGUUUAAAAGGCAAGACCGUCAAAUUGCGGGAAAGGGGUCAACAGCCGUUCAGUACCAAGUCUCAGGGGAAACUUUGAGAUGGCCUUGCAAAGGGUAUGGUAAUAAGCUGACGGACAUGGUCCUAACCACGCAGCCAAGUCCUAAGUCAACAGAUCUUCUGUUGAUAUGGAUGCAGUUCACAGACUAAAUGUCGGUCGGGGAAGAUGUAUUCUUCUCAUAAGAUAUAGUCGGACCUCUCCUUAAUGGGAGCUAGCGGAUGAAGUGAUGCAACACUGGAGCCGCUGGGAACUAAUUUGUAUGCGAAAGUAUAUUGAUUAGUUUUGGAGUACUCGUGGUCG
Method in brief: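 The eight P1ex-region nucleotides of an intron in the knt kanamycin-resistance gene on pET-22b(+) were all randomised and the library put into E. coli BL21(DE3). Six replicate transformations were grown overnight at 37°C or 30°C on LB agar with or without 25 μg/mL kanamycin, together with 100 μg/mL carbenicillin, 50 μM IPTG and 0.2% rhamnose. Colonies were pooled and amplicon-sequenced on an Illumina HiSeq 2500. Fitness from DiMSum is the error-weighted combination of wild-type-normalised replicate fold changes, kanamycin over none.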

Sequence	self-splicing fitness (ln) (30 °C)	self-splicing fitness (ln) (37 °C)
UUAGAGCAAUAUUACGGCUU	-2.83 ± 0.21	-1.79 ± 0.22
UUAGAGCAAUAUUACGUAAC	-2.76 ± 0.39	-1.73 ± 0.49
UUAGAGCAAUAUUACGUAGC	-2.12 ± 0.24	–
UUAGAGCAAUAUUACGUCCG	-2.38 ± 0.24	-1.99 ± 0.34
UUAGAGCAAUAUUACGUGAC	-3.13 ± 0.18	-2.64 ± 0.24
UUAGAGCAAUAUUACGUUAU	-3.14 ± 0.16	-2.14 ± 0.19
UUAGAGCAAUAUUACGUUCU	-4.07 ± 0.27	-2.92 ± 0.3
UUAGAGCAAUAUUACGUUGA	-2.03 ± 0.1	-0.538 ± 0.12
UUAUAGCAAUAUUACGACAA	-0.403 ± 0.12	-0.279 ± 0.11
UUAUAGCAAUAUUACGACGG	-0.906 ± 0.11	-0.144 ± 0.16
UUAUAGCAAUAUUACGAUGC	-2.99 ± 0.34	-1.93 ± 0.32
UUAUAGCAAUAUUACGCCGA	-0.888 ± 0.2	0.064 ± 0.25
UUAUAGCAAUAUUACGGAUU	-3.1 ± 0.43	-2.02 ± 0.29
UUAUAGCAAUAUUACGGCCG	-0.763 ± 0.48	-0.565 ± 0.37
UUAUAGCAAUAUUACGGCGC	-0.766 ± 0.18	-0.308 ± 0.17
UUAUAGCAAUAUUACGGGAC	-2.91 ± 0.31	-2.4 ± 0.34
UUAUAGCAAUAUUACGGGGA	-1.89 ± 0.13	-1.38 ± 0.15
UUAUAGCAAUAUUACGGGUA	-2.85 ± 0.2	-1.65 ± 0.19
UUAUAGCAAUAUUACGGGUC	-2.3 ± 0.32	-2.47 ± 0.41
UUAUAGCAAUAUUACGGGUU	-3.8 ± 0.26	-1.13 ± 0.15
UUAUAGCAAUAUUACGGUAA	-1.31 ± 0.17	-0.924 ± 0.17
UUAUAGCAAUAUUACGUACA	-1.06 ± 0.16	-0.0284 ± 0.16
UUAUAGCAAUAUUACGUCUA	-0.963 ± 0.15	-0.336 ± 0.11
UUAUAGCAAUAUUACGUGAC	-3.22 ± 0.22	-0.826 ± 0.22
UUAUAGCAAUAUUACGUGCA	-2.37 ± 0.23	-1.07 ± 0.2

Sequence	self-splicing fitness (ln) (30 °C)	self-splicing fitness (ln) (37 °C)
UUAUAGCAAUAUUACGUUAC	-4.01 ± 0.43	-3.56 ± 0.37
UUAUAGCAAUAUUACGUUUA	-2.29 ± 0.16	-0.505 ± 0.12
UUCAAGCAAUAUUACGACAC	-2.8 ± 0.28	-1.39 ± 0.18
UUCAAGCAAUAUUACGAUCA	-0.845 ± 0.082	-0.189 ± 0.093
UUCAAGCAAUAUUACGCAAC	–	-1.43 ± 0.47
UUCAAGCAAUAUUACGCCAG	0.732 ± 0.48	0.119 ± 0.33
UUCAAGCAAUAUUACGCGAA	-3.01 ± 0.18	-1.47 ± 0.13
UUCAAGCAAUAUUACGCUCA	-1.42 ± 0.16	0.0916 ± 0.2
UUCAAGCAAUAUUACGCUUC	-3.09 ± 0.22	-2.8 ± 0.44
UUCAAGCAAUAUUACGGAUG	-2.34 ± 0.14	-1.7 ± 0.14
UUCAAGCAAUAUUACGGCCU	-2.42 ± 0.17	-0.267 ± 0.15
UUCAAGCAAUAUUACGGCGC	-1.42 ± 0.14	-1.47 ± 0.2
UUCAAGCAAUAUUACGGGUU	-2.38 ± 0.12	-0.76 ± 0.12
UUCAAGCAAUAUUACGGUCA	-0.929 ± 0.097	0.00589 ± 0.098
UUCAAGCAAUAUUACGUAAC	–	-2.22 ± 0.42
UUCAAGCAAUAUUACGUAAU	-2.49 ± 0.087	-1.56 ± 0.1
UUCAAGCAAUAUUACGUACU	-1.3 ± 0.13	-0.455 ± 0.15
UUCAAGCAAUAUUACGUGCA	-0.545 ± 0.047	-0.00601 ± 0.065
UUCAAGCAAUAUUACGUGGC	-3.8 ± 0.19	-1.83 ± 0.13
UUCAAGCAAUAUUACGUUAU	-4.39 ± 0.21	-2.3 ± 0.15
UUCCAGCAAUAUUACGAAAC	–	-2.29 ± 0.35
UUCCAGCAAUAUUACGAAGU	–	-1.47 ± 0.32
UUCCAGCAAUAUUACGAUAG	-2.58 ± 0.18	-1.4 ± 0.16
UUCCAGCAAUAUUACGAUAU	-3.13 ± 0.25	-0.723 ± 0.16

From the supplement of paper PMC7877785
